Consider 1 molecule from paper doi:10.1101/2022.01.10.475532 (bioRxiv, 2022).

For this experiment, the target named is recombinant S trimer protein of the WT SARS-CoV-2 strain (SARS-CoV-2 WT (Wuhan-Hu-1), UniProt P0DTC2, stabilised). The experiment in a line: ELISA.

B1: MAb S3H3 (IgG) (antibody, V domains shown)
VH: QVQLQQPGAELVRPGASVKLSCKASGYSFTRFWMNWVKQRPGQGLEWIGMIHPSDSETRLNQKFKDKATLTVDKSSTTAYMQLSSPTSEDSAVYYCARKDYDYDAWFAYWGQGTLVTVSA
VL: DIVLTQSPASLAVSLGQRATISCRASKSVSASVYSYMHWYQQKPGQPPKLLIYLASSLESGVPARFSGSGSGTDFTLNIHPVEEEDAATYYCHHSRELPPAFGGGTKLEIK
In the case of B1, the binding result is “binds”.
